Key:
[1] = target: T1, Ly110; assay: ELISA, CD137 protein coated, clone 3712 titrated; sigmoid with a low plateau of about 0.45 (huCD137 about 1.5)
T1 chain: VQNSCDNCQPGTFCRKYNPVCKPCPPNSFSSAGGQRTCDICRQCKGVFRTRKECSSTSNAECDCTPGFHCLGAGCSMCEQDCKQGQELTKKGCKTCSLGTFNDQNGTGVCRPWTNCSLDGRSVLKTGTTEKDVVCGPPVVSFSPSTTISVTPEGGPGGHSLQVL
Protocol: (§1) For the data shown in FIGS. 16C-D, chimeric CD137 receptor protein samples were diluted in DPBS to 5 μg/mL and then coated onto an ELISA plate (Corning, Catalog number: 9018, high binding) at 50 μL (0.25 μg) per well, and incubated at 4° C. overnight. The plate was decanted and washed once; assay diluent was added at 200 μL/well. After a 1-hour incubation at room temperature, the plate was washed with PBST one time. […] The plate was incubated 1 hour at room temperature and then washed three times with PBST. Goat anti-human IgG-H+L HRP-conjugated at 1:100,000 dilution or goat anti-mouse IgG (H+L) secondary antibody, HRP, 10 at 1:50,000 dilution was added to the plate at 100 μL/well. The plate was incubated 1 hour at room temperature followed by washing with PBST four times. The TMB substrate solution was added 100 μL/well. The color was permitted to develop for 15 minutes and then 100 μL/well 2N H2SO4 was added to terminate the reaction. Absorbance at 450 nm and 620 nm was determined by a Tecan F200 Pro reader.

[2] = target: T2, human CD160 on CHO cells (human, UniProt O95971 25-159); assay: flow cytometry on CHO cells over-expressing the target
T2 construct: whole, on cells
T2 sequence (looked up): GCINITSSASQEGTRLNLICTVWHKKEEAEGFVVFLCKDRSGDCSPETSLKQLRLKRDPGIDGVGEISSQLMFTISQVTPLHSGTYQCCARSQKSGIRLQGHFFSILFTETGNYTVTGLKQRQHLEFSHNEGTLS
Protocol: The cells were resuspended in ice cold assay buffer at 2*10\hat{ }6/mL and transferred to 96-well V-bottom plate with 100 μL/well. […] The plate was incubated in the dark for 2 hours at 4° C. The cells were washed 3 times by centrifugation at 1000 g for 3 min and resuspended in 100 μL ice cold assay buffer containing goat F(ab′)₂ anti-human IgG-Fc (PE) or PE goat anti-mouse IgG antibody. The plate was incubated in the dark for another 1 hour at 4° C. The cells were washed 2 times by centrifugation at 1000 g for 3 min and resuspended in ice cold assay buffer containing 2% PFA and analyzed on the flow cytometer immediately.

[3] = target: T3, human FcγRI on CHO-K1 cells (human, UniProt P12314 16-374); assay: flow cytometry on CHO-huFcγRIA cells, PE anti-human Fc F(ab')2
T3 construct: whole, on cells; also called CHO-K1-huFcγRI; CHO-huFcγRIA
Protocol: The plate was mixed and incubated in the dark for 2 hours at 4° C. […] The plate was incubated in the dark for another 1 hour at 4° C. The cells were washed 2 times by centrifugation at 1000 g for 3 min and resuspended in ice cold assay buffer containing 2% PFA.

[4] = target: T4, Ly048; assay: ELISA, clone 3712-IgG1v coated, CD137 protein titrated (EC50 is a concentration of the CD137 protein); curve only begins to rise: about 0.63 at 100000 ng/mL, no plateau, the fitted EC50 lies beyond the range tested
T4 chain: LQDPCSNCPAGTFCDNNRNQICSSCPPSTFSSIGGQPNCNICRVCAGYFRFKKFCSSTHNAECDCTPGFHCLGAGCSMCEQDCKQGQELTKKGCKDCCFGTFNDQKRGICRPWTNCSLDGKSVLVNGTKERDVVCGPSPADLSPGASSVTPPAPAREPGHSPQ
Protocol: (§2) The plate was decanted and washed once; assay diluent was added 200 μL/well. After one-hour incubation at room temperature, the plate was washed with PBST one time. CD137 receptor human/mouse chimeras were diluted in assay diluent to 100 or 10 μg/mL, and then a 4-fold serial dilution in assay diluent for 11 points to final concentrations of 100000, 25000, 6250, 1562.5, 390.63, 97.66, 24.41, 6.10, 1.53, 0.38 and 0.095 ng/mL or 10000, 2500, 625, 156.25, 39.06, 9.77, 2.44, 0.61, 0.15, 0.038 and 0.0095 ng/mL. The diluted CD137 receptor was added to the assay plate, 50 μL/well, in duplicate. The plate was incubated one hour at room temperature and then washed three times with PBST. Goat anti-human IgG-H+L HRP conjugated at 1:100,000 20 dilution was added to the plate at 100 μL/well. The plate was then incubated one hour at room temperature followed by washing with PBST four times. The TMB substrate solution was added at 100 μL/well. The color was allowed to develop for 15 minutes, and was stopped with 100 μL/well 2N H2SO4. Absorbance at 450 nm and 620 nm was determined by a Tecan F200 Pro reader.

[5] = target: T5, Ly052; assay: ELISA, CD137 protein coated, clone 3712 titrated; flat curve (see non_binding)
T5 chain: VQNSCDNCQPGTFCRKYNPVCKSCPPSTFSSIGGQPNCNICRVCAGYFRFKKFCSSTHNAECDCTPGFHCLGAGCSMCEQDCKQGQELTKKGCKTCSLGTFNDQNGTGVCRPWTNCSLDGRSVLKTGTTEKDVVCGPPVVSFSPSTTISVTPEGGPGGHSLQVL
Protocol: as §1

[6] = target: T6, Ly051; assay: ELISA, clone 3712-IgG1v coated, CD137 protein titrated (EC50 is a concentration of the CD137 protein); curve only begins to rise: about 0.42 at 100000 ng/mL, no plateau, fit marked ~
T6 chain: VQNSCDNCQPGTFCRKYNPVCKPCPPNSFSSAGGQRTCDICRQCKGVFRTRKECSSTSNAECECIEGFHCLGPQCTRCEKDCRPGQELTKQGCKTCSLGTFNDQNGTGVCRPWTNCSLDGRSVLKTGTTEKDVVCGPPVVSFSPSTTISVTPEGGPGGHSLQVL
Protocol: as §2

T3 sequence (P12314 16-374): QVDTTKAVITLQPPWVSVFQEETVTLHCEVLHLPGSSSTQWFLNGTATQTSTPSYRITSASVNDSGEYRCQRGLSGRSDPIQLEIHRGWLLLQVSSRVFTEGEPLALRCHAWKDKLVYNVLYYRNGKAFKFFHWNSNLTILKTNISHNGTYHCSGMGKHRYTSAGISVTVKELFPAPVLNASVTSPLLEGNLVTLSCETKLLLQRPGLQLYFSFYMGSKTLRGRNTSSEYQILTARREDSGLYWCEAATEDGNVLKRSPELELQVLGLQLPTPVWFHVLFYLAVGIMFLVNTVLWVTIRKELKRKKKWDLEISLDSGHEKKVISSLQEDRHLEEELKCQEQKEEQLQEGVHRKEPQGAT

EC50 [1]: 0.0578 µg/mL
binding result [2]: no binding
binding result [3]: no binding (tested: 10 µg/mL)
EC50 [4]: 486 µg/mL
EC50 [5]: 0.000749 µg/mL
EC50 [6]: ~466 µg/mL
B1: Clone 3712-IgG1v (IgG1v/kappa) (antibody)
heavy: QVQLVQSGAEVKKPGASVKVSCKASGYTFAGFEMHWVRQAPGQGLEWMGAIDPKTGGTDYNQKFKDRVTMTRDTSISTAYMELSRLRSDDTAVYYCARDLGYFDVWGQGTLVTVSSASTKGPSVFPLAPSSKSTSGGTAALGCLVKDYFPEPVTVSWNSGALTSGVHTFPAVLQSSGLYSLSSVVTVPSSSLGTQTYICNVNHKPSNTKVDKKVEPKSCDKTHTCPPCPAPELLGPSVFLFPPKPKDTLMISRTPEVTCVVVDVEHEDPEVKFNWYVDGVEVHNAKTKPREEQYNSTYRVVSVLTVLHQDWLNGKEYKCKVSNKALPAPIEKTISKAKGQPREPQVYTLPPSREEMTKNQVSLTCLVKGFYPSDIAVEWESNGQPENNYKTTPPVLDSDGSFFLYSKLTVDKSRWQQGNVFSCSVMHEALHNHYTQKSLSLSPGK
light: DIQMTQSPSSLSASVGDRVTITCRASQDIRSNLNWYQQKPGGAVKLLIYYTSRLHSGVPSRFSGSGSGTDYTLTISSLQPEDFATYFCQQSEKLPRTFGGGTKVEIRRTVAAPSVFIFPPSDEQLKSGTASVVCLLNNFYPREAKVQWKVDNALQSGNSQESVTEQDSKDSTYSLSSTLTLSKADYEKHKVYACEVTHQGLSSPVTKSFNRGEC
notes: copies: 2 + 2

From patent US20210246218A1 (LYVGEN BIOPHARMA SUZHOU, published 2021)
